According to publication PMC9815587, “The structure of the human LACTB filament reveals the mechanisms of assembly and membrane binding” (PLOS Biology, 2022):
Residue numbers refer to the chain shown, from its start.

B1: human LACTB (residues 97 to 547), wild-type (enzyme, UniProt P83111 97-547, looked up)
chain: APPCSRCFARAIESSRDLLHRIKDEVGAPGIVVGVSVDGKEVWSEGLGYADVENRVPCKPETVMRIASISKSLTMVALAKLWEAGKLDLDIPVQHYVPEFPEKEYEGEKVSVTTRLLISHLSGIRHYEKDIKKVKEEKAYKALKMMKENVAFEQEKEGKSNEKNDFTKFKTEQENEAKCRNSKPGKKKNDFEQGELYLREKFENSIESLRLFKNDPLFFKPGSQFLYSTFGYTLLAAIVERASGCKYLDYMQKIFHDLDMLTTVQEENEPVIYNRARFYVYNKKKRLVNTPYVDNSYKWAGGGFLSTVGDLLKFGNAMLYGYQVGLFKNSNENLLPGYLKPETMVMMWTPVPNTEMSWDKEGKYAMAWGVVERKQTYGSCRKQRHYASHTGGAVGASSVLLVLPEELDTETINNKVPPRGIIVSIICNMQSVGLNSTALKIALEFDKDRSD
notes: human LACTB (serine beta-lactamase-like protein, mitochondrial), residues 97 to 547 of the gene product of residues 1 to 547; Assembles into helical filaments of stacked antiparallel dimers; number of copies not fixed; also called WT LACTB; serine beta-lactamase-like protein; source: E. coli BL21(DE3)-RIPL, purified (Ni-NTA, tag removed with Ulp1, SEC on Superose 6 Increase); not shown: His6, …
B2: human LACTB (residues 97 to 547) 274ExExxExxEEE284 mutant (enzyme, UniProt P83111 97-547, looked up)
chain: B1 chain with K178E, R180E, K183E, K186E, K187E, K188E
notes: human LACTB, residues 97 to 547, motif 274KxRxxKxxKKK284 changed to 274ExExxExxEEE284; single changes counted out from the printed motifs; source: E. coli BL21(DE3)-RIPL, purified (Ni-NTA, tag removed with Ulp1, SEC on Superose 6 Increase); not shown: His6, N-terminal, cleaved; SUMO, N-terminal, cleaved
B3: human LACTB (residues 97 to 547) 259EAxAxEAE266 mutant (enzyme, UniProt P83111 97-547, looked up)
chain: B1 chain with K163E, N164A, F166A, K168E, F169A, K170E
notes: human LACTB, residues 97 to 547, motif 259KNxFxKFK266 changed to 259EAxAxEAE266; single changes counted out from the printed motifs; source: E. coli BL21(DE3)-RIPL, purified (Ni-NTA, tag removed with Ulp1, SEC on Superose 6 Increase); not shown: His6, N-terminal, cleaved; SUMO, N-terminal, cleaved
B4: human LACTB (residues 97 to 547) R117E (enzyme, UniProt P83111 97-547, looked up)
chain: B1 chain with R21E
notes: human LACTB, residues 97 to 547, polymer interface 1 charge-reversal mutant; source: E. coli BL21(DE3)-RIPL, purified (Ni-NTA, tag removed with Ulp1, SEC on Superose 6 Increase); not shown: His6, N-terminal, cleaved; SUMO, N-terminal, cleaved
B5: human LACTB (residues 97 to 547) with the flexible loop region (residues K255 to K284) replaced by a GGS linker (enzyme)
chain: APPCSRCFARAIESSRDLLHRIKDEVGAPGIVVGVSVDGKEVWSEGLGYADVENRVPCKPETVMRIASISKSLTMVALAKLWEAGKLDLDIPVQHYVPEFPEKEYEGEKVSVTTRLLISHLSGIRHYEKDIKKVKEEKAYKALKMMKENVAFEQEKEGGGSNDFEQGELYLREKFENSIESLRLFKNDPLFFKPGSQFLYSTFGYTLLAAIVERASGCKYLDYMQKIFHDLDMLTTVQEENEPVIYNRARFYVYNKKKRLVNTPYVDNSYKWAGGGFLSTVGDLLKFGNAMLYGYQVGLFKNSNENLLPGYLKPETMVMMWTPVPNTEMSWDKEGKYAMAWGVVERKQTYGSCRKQRHYASHTGGAVGASSVLLVLPEELDTETINNKVPPRGIIVSIICNMQSVGLNSTALKIALEFDKDRSD
notes: human LACTB, residues 97 up to the residue before K255; GGS linker in place of K255 to K284; human LACTB, from the residue after K284 to 547; also called ΔL6; flexible loop deletion; source: E. coli BL21(DE3)-RIPL, purified (Ni-NTA, tag removed with Ulp1, SEC on Superose 6 Increase); not shown: His6, N-terminal, cleaved; SUMO, N-terminal, cleaved
B6: human LACTB (residues 97 to 547) with the L15 loop (V467 to Y482) replaced by a GGS linker (enzyme)
chain: APPCSRCFARAIESSRDLLHRIKDEVGAPGIVVGVSVDGKEVWSEGLGYADVENRVPCKPETVMRIASISKSLTMVALAKLWEAGKLDLDIPVQHYVPEFPEKEYEGEKVSVTTRLLISHLSGIRHYEKDIKKVKEEKAYKALKMMKENVAFEQEKEGKSNEKNDFTKFKTEQENEAKCRNSKPGKKKNDFEQGELYLREKFENSIESLRLFKNDPLFFKPGSQFLYSTFGYTLLAAIVERASGCKYLDYMQKIFHDLDMLTTVQEENEPVIYNRARFYVYNKKKRLVNTPYVDNSYKWAGGGFLSTVGDLLKFGNAMLYGYQVGLFKNSNENLLPGYLKPETMVMMWTPVPNTEMSWDKEGKYAMAWGVGGSASHTGGAVGASSVLLVLPEELDTETINNKVPPRGIIVSIICNMQSVGLNSTALKIALEFDKDRSD
notes: human LACTB, residues 97 up to the residue before V467; glycine-glycine-serine (GGS) linker in place of V467 to Y482; human LACTB, from the residue after Y482 to 547; also called L15 loop replacement; removal of the L15 loop; source: E. coli BL21(DE3)-RIPL, purified (Ni-NTA, tag removed with Ulp1, SEC on Superose 6 Increase); not shown: His6, N-terminal, cleaved; SUMO, N-terminal, cleaved

Molecular target: the molecule itself
Assay: SEC; Superose 6 Increase 10/300 GL; 20 mM HEPES-NaOH (pH 7.5), 140 mM NaCl, 10 mM KCl, 1 mM MgCl2, 1 mM DTT; self-assembly, filaments elute within the void volume

Binding result, binds:
B1

Molecular target: the molecule itself
Assay: negative-stain TEM; SEC peak fractions diluted to approximately 2.0 μm (so in the source), 0.75% uranyl formate, Tecnai T12 at 100 kV; self-assembly into filaments

Binding result, binds:
B2, B3, B4, B5, B6
